# In IntAct's records for PubMed 24997597:
# B1: Centrosomal protein of 152 kDa (Homo sapiens), O94986-3 (parent)
# chain: MSLDFGSVALPVQNEDEEYDEEDYEREKELQQLLTDLPHDMLDDDLSSPELQYSDCSEDGTDGQPHHPEQLEMSWNEQMLPKSQSVNGYNEIQSLYAGEKCGNVWEENRSKTEDRHPVYHPEEGGDEGGSGYSPPSKCEQTDLYHLPENFRPYTNGQKQEFNNQATNVIKFSDPQWNHFQGPSCQGLEPYNKVTYKPYQSSAQNNGSPAQEITGSDTFEGLQQQFLGANENSAENMQIIQLQVLNKAKERQLENLIEKLNESERQIRYLNHQLVIIKDEKDGLTLSLRESQKLFQNGKEREIQLEAQIKALETQIQALKVNEEQMIKKSRTTEMALESLKQQLVDLHHSESLQRAREQHESIVMGLTKKYEEQVLSLQKNLDATVTALKEQEDICSRLKDHVKQLERNQEAIKLEKTEIINKLTRSLEESQKQCAHLLQSGSVQEVAQLQFQLQQAQKAHAMSANMNKALQEELTELKDEISLYESAAKLGIHPSDSEGELNIELTESYVDLGIKKVNWKKSKVTSIVQEEDPNEELSKDEFILKLKAEVQRLLGSNSMKRHLVSQLQNDLKDCHKKIEDLHQVKKDEKSIEVETKTDTSEKPKNQLWPESSTSDVVRDDILLLKNEIQVLQQQNQELKETEGKLRNTNQDLCNQMRQMVQDFDHDKQEAVDRCERTYQQHHEAMKTQIRESLLAKHALEKQQLFEAYERTHLQLRSELDKLNKEVTAVQECYLEVCREKDNLELTLRKTTEKEQQTQEKIKEKLIQQLEKEWQSKLDQTIKAMKKKTLDCGSQTDQVTTSDVISKKEMAIMIEEQKCTIQQNLEQEKDIAIKGAMKKLEIELELKHCENITKQVEIAVQNAHQRWLGELPELAEYQALVKAEQKKWEEQHEVSVNKRISFAVSEAKEKWKSELENMRKNILPGKELEEKIHSLQKELELKNEEVPVVIRAELAKARSEWNKEKQEEIHRIQEQNEQDYRQFLDDHRNKINEVLAAAKEDFMKQKTELLLQKETELQTCLDQSRREWTMQEAKRIQLEIYQYEEDILTVLGVLLSDTQKEHISDSEDKQLLEIMSTCSSKWMSVQYFEKLKGCIQKAFQDTLPLLVENADPEWKKRNMAELSKDSASQGTGQGDPGPAAGHHAQPLALQATEAEAEENNKVVEELIEENNDMKNKLEELQTLCKTPPRSLSAGAIENACLPCSGGALEELRGQYIKAVKKIKCDMLRYIQESKERAAEMVKAEVLRERQETARKMRKYYLICLQQILQDDGKEGAEKKIMNAASKLATMAKLLETPISSKSQSKTTQSALPLTSEMLIAVKKSKRNDVNQKIPCCIESKSNSVNTITRTLCEQAPKRRAACNLQRLLENSEHQSIKHVGSKETHLEFQFGDGSCKHLNSLPRNVSPEFVPCEGEGGFGLHKKKDLLSDNGSESLPHSAAYPFLGTLGNKPSPRCTPGPSESGCMHITFRDSNERLGLKVYKCNPLMESENAASEKSQGLDVQEPPVKDGGDLSDCLGWPSSSATLSFDSREASFVHGRPQGTLEIPSESVKSKQFSPSGYLSDTEESNMICQTMKCQRYQTPYLSEETTYLEPGKISVNCGHPSRHKADRLKSDFKKLSSTLPSSVCQQPSRKLIVPLSSQQDSGFDSPFVNLD
# partner: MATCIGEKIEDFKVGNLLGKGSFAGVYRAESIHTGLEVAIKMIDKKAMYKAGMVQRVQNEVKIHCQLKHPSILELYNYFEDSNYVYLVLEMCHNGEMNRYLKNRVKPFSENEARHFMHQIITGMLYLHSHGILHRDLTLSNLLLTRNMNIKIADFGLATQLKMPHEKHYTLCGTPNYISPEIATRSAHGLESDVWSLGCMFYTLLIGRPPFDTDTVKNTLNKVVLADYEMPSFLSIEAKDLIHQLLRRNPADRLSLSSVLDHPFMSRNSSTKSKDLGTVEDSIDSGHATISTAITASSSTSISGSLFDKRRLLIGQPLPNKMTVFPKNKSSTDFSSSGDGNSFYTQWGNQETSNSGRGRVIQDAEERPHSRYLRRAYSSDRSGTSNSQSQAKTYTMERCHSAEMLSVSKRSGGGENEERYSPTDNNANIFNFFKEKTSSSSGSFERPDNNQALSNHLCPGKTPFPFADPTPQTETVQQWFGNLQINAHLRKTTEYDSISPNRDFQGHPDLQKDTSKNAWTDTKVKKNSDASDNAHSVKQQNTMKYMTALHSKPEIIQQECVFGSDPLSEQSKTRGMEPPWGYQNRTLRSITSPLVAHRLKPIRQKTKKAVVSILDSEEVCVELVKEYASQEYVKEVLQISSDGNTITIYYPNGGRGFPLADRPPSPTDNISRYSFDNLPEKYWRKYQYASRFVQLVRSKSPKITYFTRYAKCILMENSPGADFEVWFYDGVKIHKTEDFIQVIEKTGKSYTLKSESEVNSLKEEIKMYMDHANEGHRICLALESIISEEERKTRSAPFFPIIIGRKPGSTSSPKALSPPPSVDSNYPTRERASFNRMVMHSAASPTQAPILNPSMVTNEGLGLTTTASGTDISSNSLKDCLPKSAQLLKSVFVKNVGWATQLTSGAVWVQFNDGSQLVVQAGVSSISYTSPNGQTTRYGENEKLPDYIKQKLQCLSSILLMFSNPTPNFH
# B2: Serine/threonine-protein kinase PLK4 (Homo sapiens), O00444 (parent)
# chain: B1 partner
# Variants of: B1
# Conditions: with plk4_human PLK4, O00444
row,effect of a mutation on the interaction,Variant
1,decreasing interaction strength,E21K
2,decreasing interaction strength,V8A

# Variants of: B2
# Conditions: with CEP152, O94986-3
row,effect of a mutation on the interaction,Variant
1,disrupting interaction strength,K685A
2,decreasing interaction strength,K711A
